Source: the supplement of paper PMC12855868

B1: library; numbered along this chain (parent)
chain: MAAAGGARLLRAASAVLGGPAGRWLHHAGSRAGSSGLLRNRGPGGSAEASRSLSVSARARSSSEDKITVHFINRDGETLTTKGKVGDSLLDVVVENNLDIDGFGACEGTLACSTCHLIFEDHIYEKLDAITDEENDMLDLAYGLTDRSRLGCQICLTKSMDNMTVRVPETVADARQSIDVGKTS

Variants of: B1
Experiment: scaled log2 fold change in cell abundance, elesclomol vs control (0 = silent mean, 1 = nonsense mean) (scaled log2 ratio); higher = higher viability under elesclomol (loss of FDX1 cuproptosis function)
Conditions: glucose 10 mM
[1] = with ABC1 FDX1 KO, elesclomol 5 nM, 14 days
[2] = with HEK293T FDX1 KO, elesclomol 40 nM, 11 days
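Note: variant abundance is its share of total variant reads in each endpoint sample, from next-generation sequencing of the integrated ORF PCR-amplified out of genomic DNA.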

Variant | scaled log2 fold change [1] | scaled log2 fold change [2]
P168I | -0.0742 | 0.61
P168K | 0.508 | -0.335
P168L | 0.485 | 0.478
P168M | 0.157 | -0.366
P168N | 0.157 | -0.31
P168Q | 0.259 | 0.667
P168R | 0.453 | 0.117
P168S | 0.106 | 0.443
P168T | 0.449 | -0.142
P168V | 0.143 | -0.0343
P168W | 0.463 | 0.286
P168Y | 0.394 | -0.173
E169A | 0.277 | -0.0328
E169C | -0.223 | -0.0591
E169D | -0.464 | 1.13
E169F | -0.455 | 0.0831
E169G | -1.32 | 0.409
E169H | 0.197 | 0.526
E169I | -0.202 | -0.174
E169K | -0.0829 | 1.04
E169L | -0.227 | -0.347
E169M | -0.846 | 0.0592
E169N | -0.234 | 0.306
E169P | -0.343 | 0.322

Variant | scaled log2 fold change [1] | scaled log2 fold change [2]
E169Q | -0.166 | 0.849
E169R | 0.0391 | 0.411
E169S | -1.11 | -0.0914
E169T | -0.402 | -0.135
E169V | -0.251 | 0.342
E169W | -0.134 | 0.73
E169Y | -0.0627 | -0.484
T170A | -0.0897 | -0.0909
T170C | 0.268 | -0.365
T170D | 0.239 | 
T170E | 0.0373 | -0.644
T170F | 0.262 | 0.826
T170G | 0.233 | -0.241
T170H | -0.102 | -1.19
T170I | -0.092 | 0.126
T170K | 0.0703 | 0.727
T170L | -0.0824 | -0.244
T170M | -0.185 | 
T170N | -0.0752 | 0.953
T170P | -0.219 | 0.16
T170Q | 0.241 | -0.893
T170R | -0.159 | 
T170S | -0.088 | -0.432
T170V | -0.0936 | -0.713

Variant | scaled log2 fold change [1] | scaled log2 fold change [2]
T170W | -0.0505 | 0.993
T170Y | 0.0553 | -0.221
V171A | -0.586 | 0.229
V171C | -0.178 | -0.0893
V171D | -0.592 | -0.239
V171E | 0.182 | -0.192
V171F | 0.0552 | -0.419
V171H | -0.198 | -0.163
V171I | -0.139 | 0.238
V171K | 4.83e-05 | -0.343
V171L | 0.231 | 0.229
V171M | 0.452 | 0.0122
V171N | -0.524 | 0.216
V171P | 0.142 | 0.0269
V171Q | -0.00995 | 0.876
V171R | -0.31 | -0.328
V171S | -0.0546 | 0.136
V171T | -0.214 | -0.343
V171W | 0.0569 | 0.292
V171Y | -0.342 | -0.405
A172C | -0.253 | -0.168
A172D | 0.0896 | 1.11
A172E | 0.236 | 0.926
A172F | -0.0712 | 0.241

Variant | scaled log2 fold change [1] | scaled log2 fold change [2]
A172G | -0.0465 | 0.05
A172H | -0.391 | 0.0671
A172I | 0.216 | 1.09
A172K | 0.212 | 
A172L | -0.0445 | -0.675
A172M | -0.557 | -0.421
A172N | -0.267 | -0.223
A172P | -0.333 | 0.355
A172Q | 0.194 | 0.591
A172R | -0.163 | 0.124
A172S | 0.42 | 0.922
A172T | -0.0186 | 1.1
A172V | 0.337 | -0.531
A172W | 0.0817 | 0.744
A172Y | 0.17 | 
D173A | 0.245 | 0.105
D173C | -0.031 | 0.0714
D173E | 0.188 | 1.27
D173F | 0.306 | -0.0815
D173G | 0.473 | -0.138
D173H | 0.000185 | -0.579
D173K | 0.645 | 0.0902
D173L | -0.299 | 0.205
D173M | -0.417 | 0.0547

Variant | scaled log2 fold change [1] | scaled log2 fold change [2]
D173N | 0.304 | -0.47
D173P | 0.0487 | 0.601
D173Q | 0.224 | 0.251
D173R | 0.198 | 0.613
D173S | 0.248 | -0.827
D173T | -0.0187 | 
D173V | 0.418 | -0.196
D173W | -0.0293 | 
D173Y | 0.241 | -0.0391
A174C | -0.397 | 
A174D | -0.995 | 0.361
A174E | -0.219 | 0.0347
A174F | -1.02 | -1.07
A174G | -0.324 | 0.643
A174H | 0.267 | -0.0112
A174I | 0.163 | 0.249
A174K | -0.0242 | 0.0836
A174L | 0.255 | 0.483
A174M | 0.0375 | -0.275
A174N | -0.0564 | 
A174P | -0.155 | -0.277
A174Q | -0.051 | 
A174R | -0.108 | 0.908
A174S | -0.111 | -0.662

Variant | scaled log2 fold change [1] | scaled log2 fold change [2]
A174T | 0.187 | -0.546
A174V | 0.037 | -0.188
A174W | 0.23 | -0.353
A174Y | 0.11 | 0.358
R175A | 0.455 | -0.138
R175C | -0.0756 | 0.45
R175D | 0.148 | 1.25
R175E | 0.417 | 0.643
R175F | 0.208 | 0.0272
R175G | 0.394 | 
R175H | 0.468 | -0.908
R175I | -0.385 | 0.157
R175K | 0.138 | -0.161
R175L | 0.518 | 
R175M | -0.223 | 0.0945
R175N | 0.0623 | 0.495
R175P | -0.117 | 0.128
R175Q | -1.39 | -0.894
R175S | 0.343 | 0.224
R175T | 0.48 | 0.313
R175V | 0.472 | -0.0442
R175W | 0.307 | -0.0023
R175Y | 0.225 | -0.118
Q176A | 0.239 | 0.8

Variant | scaled log2 fold change [1] | scaled log2 fold change [2]
Q176C | 0.128 | -0.158
Q176D | -0.118 | -0.177
Q176E | 0.157 | -0.685
Q176F | -0.29 | 0.182
Q176G | -0.184 | -0.11
Q176H | -0.0199 | 0.909
Q176I | 0.324 | -0.471
Q176K | 0.426 | 0.463
Q176L | -0.0736 | -0.65
Q176M | 0.291 | 
Q176N | -0.0287 | 1.21
Q176P | 0.375 | 0.159
Q176R | -0.155 | 0.492
Q176S | -0.0172 | -0.0154
Q176T | -0.0483 | -0.279
Q176V | 0.192 | -0.626
Q176W | -0.225 | 0.328
Q176Y | 0.0438 | 1.3
S177A | -0.0907 | 
S177C | -0.309 | 
S177D | -1.44 | -0.675
S177E | -0.0815 | -0.019
S177F | -0.0241 | -0.0862
S177G | -0.315 | 0.0748

Variant | scaled log2 fold change [1] | scaled log2 fold change [2]
S177H | 0.139 | -0.562
S177I | -0.08 | 0.665
S177K | 0.281 | -0.228
S177L | -0.34 | -0.529
S177M | -0.566 | 0.0434
S177N | 0.00267 | 0.0839
S177P | -0.213 | -0.486
S177Q | 0.143 | -0.314
S177R | -0.0538 | -0.798
S177T | -0.0709 | -0.492
S177V | -0.287 | 0.49
S177W | 0.0273 | 0.264
S177Y | -1.05 | 0.126
I178A | -0.325 | 0.476
I178C | 0.576 | -0.695
I178D | 0.156 | 1.21
I178E | 0.2 | -0.114
I178F | -0.214 | 0.801
I178G | -0.381 | 
I178H | -0.366 | 0.244
I178K | 0.421 | 1.24
I178L | 0.552 | -0.187
I178M | -0.147 | 0.0752
I178N | 0.142 | 0.216

Variant | scaled log2 fold change [1] | scaled log2 fold change [2]
I178P | -0.0627 | 0.399
I178Q | -0.0255 | 0.28
I178R | 0.265 | -0.46
I178S | 0.197 | 0.0683
I178T | 0.00283 | -0.626
I178V | -0.343 | 0.0591
I178W | 0.246 | -0.636
I178Y | -1.49 | 0.141
D179A | -0.393 | -0.278
D179C | 0.369 | -0.227
D179E | -0.000144 | 0.0611
D179F | -0.352 | 0.995
D179G | 0.226 | 0.304
D179H | 0.224 | 
D179I | -0.885 | 0.926
D179K | 0.53 | -0.385
D179L | 0.0184 | 1.12
D179M | 0.0418 | -0.494
D179N | 0.063 | 
D179P | -0.26 | 0.0267
D179Q | 0.442 | -0.984
D179R | 0.498 | -0.221
D179S | 0.558 | 0.929
D179T | 0.106 | 0.00101

Variant | scaled log2 fold change [1] | scaled log2 fold change [2]
D179V | -0.0481 | 0.172
D179W | 0.235 | 
D179Y | 0.0967 | -0.339
V180A | -0.00321 | 2.72
V180C | 0.235 | 0.216
V180D | 0.293 | 
V180E | -0.352 | -0.141
V180F | 0.0635 | 0.0689
V180G | 0.144 | -0.341
V180H | -0.37 | 1.19
V180I | 0.213 | 
V180K | -0.341 | 0.164
V180L | -0.0572 | -0.104
V180M | 0.313 | 0.491
V180N | 0.00503 | -0.0838
V180P | -1.19 | 0.824
V180Q | 0.0492 | -0.00162
V180R | -0.02 | -0.285
V180S | -0.754 | -1.45
V180T | 0.143 | -0.33
V180W | -0.111 | 0.322
V180Y | -0.084 | 0.873
